Test results published in IntAct's records for PubMed 32873725.

B1: Phospholamban (Mus musculus), P61014 (parent)
chain: MEKVQYLTRSAIRRASTIEMPQQARQNLQNLFINFCLILICLLLICIIVMLL

Variants of: B1
Details: with kcc2d_human CAMK2D

Variant | effect of a mutation on the interaction
MEKVQYLTRSAIRRAATIEMPQQARQNLQNLFINFCLILICLLLICIIVMLL [S16A] | with no effect
